Earlier results on one substance are cited in paper PMC11076006.

The target of this data set is TLR4 (Homo sapiens) (UniProt O00206).
Chain of UniProt O00206 (O00206 24-839): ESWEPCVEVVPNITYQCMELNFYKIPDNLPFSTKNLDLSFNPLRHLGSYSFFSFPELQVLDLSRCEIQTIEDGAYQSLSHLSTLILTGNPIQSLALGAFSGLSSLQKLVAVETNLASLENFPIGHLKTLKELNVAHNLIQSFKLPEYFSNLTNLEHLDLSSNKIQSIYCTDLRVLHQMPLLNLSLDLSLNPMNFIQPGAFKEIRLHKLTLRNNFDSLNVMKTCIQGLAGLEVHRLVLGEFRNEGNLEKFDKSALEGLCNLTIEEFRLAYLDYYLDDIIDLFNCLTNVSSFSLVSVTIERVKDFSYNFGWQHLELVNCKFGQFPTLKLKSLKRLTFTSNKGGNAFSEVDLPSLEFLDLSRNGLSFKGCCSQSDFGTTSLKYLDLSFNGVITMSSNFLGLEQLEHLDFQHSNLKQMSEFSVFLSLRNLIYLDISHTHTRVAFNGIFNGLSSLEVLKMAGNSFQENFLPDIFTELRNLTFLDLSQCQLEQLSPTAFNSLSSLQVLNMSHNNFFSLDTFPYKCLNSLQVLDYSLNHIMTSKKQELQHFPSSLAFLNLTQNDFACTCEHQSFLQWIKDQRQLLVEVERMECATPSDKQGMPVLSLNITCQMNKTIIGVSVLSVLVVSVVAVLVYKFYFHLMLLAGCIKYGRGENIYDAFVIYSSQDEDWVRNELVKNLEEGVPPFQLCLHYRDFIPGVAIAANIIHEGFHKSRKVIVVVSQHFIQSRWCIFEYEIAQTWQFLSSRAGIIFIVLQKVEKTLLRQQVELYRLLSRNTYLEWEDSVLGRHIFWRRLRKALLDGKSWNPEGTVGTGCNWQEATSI

In general, Kd refers to the constant that tells how readily two partners part at equilibrium. Regarding S100A9 (from UniProt P06702), the dissociation constant (Kd) is 3.2 nM.
